Experimental data: US20200079833A1 (AstraZeneca / MedImmune, published 2020)
Starred links: 1 amine or outer side, 2 acyl side, 3 side chain; linkers in the order of their positions; H or OH if unused. Non-standard residues stand in square brackets, D forms with d. Groups on a side chain read outwards from the residue. Primed or numbered codes have the meaning given here. No end group written: not given here. *: point of attachment. γGlu = O=C(O)[C@H](CCC(=O)[*:2])N[*:1]; Stearoyl = CCCCCCCCCCCCCCCCCC(=O)*; Palmitoyl = CCCCCCCCCCCCCCCC(=O)*; αMeF = C[C@](N)(Cc1ccccc1)C(=O)O; αMeK = C[C@](N)(CCCCN)C(=O)O; αMeS = C[C@](N)(CO)C(=O)O; PEG2′ = not defined here; Aib = CC(C)(N)C(=O)O

T1: glucose-dependent insulinotropic peptide (gastric inhibitory polypeptide) receptor (GIPR) (human, UniProt P48546 22-466)
T1 sequence (looked up): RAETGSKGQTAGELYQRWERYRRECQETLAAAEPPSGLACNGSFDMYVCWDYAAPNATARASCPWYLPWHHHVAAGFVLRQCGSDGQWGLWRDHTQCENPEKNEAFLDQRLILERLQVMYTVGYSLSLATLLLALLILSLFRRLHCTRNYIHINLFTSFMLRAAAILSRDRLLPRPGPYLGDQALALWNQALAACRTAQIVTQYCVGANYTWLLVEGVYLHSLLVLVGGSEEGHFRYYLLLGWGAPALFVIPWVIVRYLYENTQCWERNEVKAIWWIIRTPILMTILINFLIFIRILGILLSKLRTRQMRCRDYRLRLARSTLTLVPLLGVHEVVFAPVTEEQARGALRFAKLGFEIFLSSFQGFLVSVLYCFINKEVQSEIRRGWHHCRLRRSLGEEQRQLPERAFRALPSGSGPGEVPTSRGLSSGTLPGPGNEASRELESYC


Legend:
Experiment in all cases: cell-based or functional assay
GLP-1 receptor (GLP-1R) = GLP-1 receptor (GLP-1R) (human, UniProt P43220 24-463)
glucagon receptor (GCGR) = glucagon receptor (GCGR) (human, UniProt P47871 26-477)
[1] = biological target: T1, glucose-dependent insulinotropic …

Sequence of glucagon receptor (GCGR) (P47871 26-477): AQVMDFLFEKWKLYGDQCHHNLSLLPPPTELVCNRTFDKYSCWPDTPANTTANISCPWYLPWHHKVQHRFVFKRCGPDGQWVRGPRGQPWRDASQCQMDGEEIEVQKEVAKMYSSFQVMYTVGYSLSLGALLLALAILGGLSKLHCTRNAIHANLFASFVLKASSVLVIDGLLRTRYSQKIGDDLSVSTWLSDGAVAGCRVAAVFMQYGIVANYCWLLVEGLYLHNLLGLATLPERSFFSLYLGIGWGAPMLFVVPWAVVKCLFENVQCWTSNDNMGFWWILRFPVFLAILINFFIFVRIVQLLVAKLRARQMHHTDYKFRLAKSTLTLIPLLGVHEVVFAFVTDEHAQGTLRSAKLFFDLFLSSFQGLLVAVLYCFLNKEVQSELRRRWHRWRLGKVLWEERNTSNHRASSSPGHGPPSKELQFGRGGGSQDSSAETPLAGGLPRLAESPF

| Binder | cAMP Mean pM GLP-1R (GLP-1 receptor (GLP-1R)) [pM] | cAMP Primary assay EC50 GLP-1R n1 (GLP-1 receptor (GLP-1R)) [nM] | cAMP Primary assay EC50 GLP-1R n2 (GLP-1 receptor (GLP-1R)) [nM] | cAMP Primary assay EC50 Gluc-R (glucagon receptor (GCGR)) [nM] | cAMP Primary assay EC50 Gluc-R (2nd) (glucagon receptor (GCGR)) [nM] | cAMP Primary assay EC50 GIP-R [1] [nM] | cAMP Primary assay EC50 GIP-R (2nd) [1] [nM] |
| --- | --- | --- | --- | --- | --- | --- | --- |
| H[Aib]EGSK([γGlu-Palmitoyl])TSDV[αMeS]S[αMeF]LEGEAA[αMeK]E[αMeF]IA[αMeF]VV[αMeK]GG-NH2 (N-terminus assumed; SMILES CCCCCCCCCCCCCCCC(=O)N[C@@H](CCC(=O)NCCCC[C@H](NC(=O)[C@H](CO)NC(=O)CNC(=O)[C@H](CCC(=O)O)NC(=O)C(C)(C)NC(=O)[C@@H](N)Cc1c[nH]cn1)C(=O)N[C@H](C(=O)N[C@@H](CO)C(=O)N[C@@H](CC(=O)O)C(=O)N[C@H](C(=O)N[C@@](C)(CO)C(=O)N[C@@H](CO)C(=O)N[C@@](C)(Cc1ccccc1)C(=O)N[C@@H](CC(C)C)C(=O)N[C@@H](CCC(=O)O)C(=O)NCC(=O)N[C@@H](CCC(=O)O)C(=O)N[C@@H](C)C(=O)N[C@@H](C)C(=O)N[C@@](C)(CCCCN)C(=O)N[C@@H](CCC(=O)O)C(=O)N[C@@](C)(Cc1ccccc1)C(=O)N[C@H](C(=O)N[C@@H](C)C(=O)N[C@@](C)(Cc1ccccc1)C(=O)N[C@H](C(=O)N[C@H](C(=O)N[C@@](C)(CCCCN)C(=O)NCC(=O)NCC(N)=O)C(C)C)C(C)C)[C@@H](C)CC)C(C)C)[C@@H](C)O)C(=O)O) [SEQ ID NO 94] | 228 | 0.14 | 0.32 | 28 | 28 | 28 | 28 |
| H[Aib]EGS[αMeF]TSDV[αMeS]S[αMeF]LEGEAA[αMeK]E[αMeF]IA[αMeF]VK([PEG2′-PEG2′-γGlu-Stearoyl])[αMeK]GG-NH2 [SEQ ID NO 102] | 22 | 0.024 | 0.0206 | 25 | 25.2 | 25 | 25.2 |
| H[Aib]EK([γGlu-Palmitoyl])S[αMeF]TSDV[αMeS]S[αMeF]LEGEAA[αMeK]E[αMeF]IA[αMeF]VV[αMeK]GG-NH2 (N-terminus assumed; SMILES CCCCCCCCCCCCCCCC(=O)N[C@@H](CCC(=O)NCCCC[C@H](NC(=O)[C@H](CCC(=O)O)NC(=O)C(C)(C)NC(=O)[C@@H](N)Cc1c[nH]cn1)C(=O)N[C@@H](CO)C(=O)N[C@@](C)(Cc1ccccc1)C(=O)N[C@H](C(=O)N[C@@H](CO)C(=O)N[C@@H](CC(=O)O)C(=O)N[C@H](C(=O)N[C@@](C)(CO)C(=O)N[C@@H](CO)C(=O)N[C@@](C)(Cc1ccccc1)C(=O)N[C@@H](CC(C)C)C(=O)N[C@@H](CCC(=O)O)C(=O)NCC(=O)N[C@@H](CCC(=O)O)C(=O)N[C@@H](C)C(=O)N[C@@H](C)C(=O)N[C@@](C)(CCCCN)C(=O)N[C@@H](CCC(=O)O)C(=O)N[C@@](C)(Cc1ccccc1)C(=O)N[C@H](C(=O)N[C@@H](C)C(=O)N[C@@](C)(Cc1ccccc1)C(=O)N[C@H](C(=O)N[C@H](C(=O)N[C@@](C)(CCCCN)C(=O)NCC(=O)NCC(N)=O)C(C)C)C(C)C)[C@@H](C)CC)C(C)C)[C@@H](C)O)C(=O)O) [SEQ ID NO 96] | 746 | 0.92 | 0.57 | 27 | 27 | 27 | 27 |
| H[Aib]EGS[αMeF]TSDV[αMeS]S[αMeF]LEGEAA[αMeK]E[αMeF]IA[αMeF]VV[αMeK]GK([PEG2′-PEG2′-γGlu-Stearoyl])-NH2 [SEQ ID NO 99] | 54 | 0.058 | 0.0493 | 25 | 24.9 | 25 | 24.9 |
| H[Aib]EGS[αMeF]TSDV[αMeS]S[αMeF]LEGEAA[αMeK]E[αMeF]IA[αMeF]VV[αMeK]K([PEG2′-PEG2′-γGlu-Stearoyl])G-NH2 [SEQ ID NO 100] | 15 | 0.016 | 0.0146 | 25 | 24.9 | 25 | 24.9 |
| HK([γGlu-Palmitoyl])EGS[αMeF]TSDV[αMeS]S[αMeF]LEGEAA[αMeK]E[αMeF]IA[αMeF]VV[αMeK]GG-NH2 [SEQ ID NO 98] | 27500 | 28 | 28 | 28 | 28 | 28 | 28 |
| H[Aib]EGS[αMeF]TSDV[αMeS]S[αMeF]LEGEAA[αMeK]E[αMeF]IA[αMeF]VVK([PEG2′-PEG2′-γGlu-Stearoyl])GG-NH2 [SEQ ID NO 101] | 55 | 0.058 | 0.0512 | 25 | 25.4 | 25 | 25.4 |
| H[Aib]EGK([γGlu-Palmitoyl])[αMeF]TSDV[αMeS]S[αMeF]LEGEAA[αMeK]E[αMeF]IA[αMeF]VV[αMeK]GG-NH2 (N-terminus assumed; SMILES CCCCCCCCCCCCCCCC(=O)N[C@@H](CCC(=O)NCCCC[C@H](NC(=O)CNC(=O)[C@H](CCC(=O)O)NC(=O)C(C)(C)NC(=O)[C@@H](N)Cc1c[nH]cn1)C(=O)N[C@@](C)(Cc1ccccc1)C(=O)N[C@H](C(=O)N[C@@H](CO)C(=O)N[C@@H](CC(=O)O)C(=O)N[C@H](C(=O)N[C@@](C)(CO)C(=O)N[C@@H](CO)C(=O)N[C@@](C)(Cc1ccccc1)C(=O)N[C@@H](CC(C)C)C(=O)N[C@@H](CCC(=O)O)C(=O)NCC(=O)N[C@@H](CCC(=O)O)C(=O)N[C@@H](C)C(=O)N[C@@H](C)C(=O)N[C@@](C)(CCCCN)C(=O)N[C@@H](CCC(=O)O)C(=O)N[C@@](C)(Cc1ccccc1)C(=O)N[C@H](C(=O)N[C@@H](C)C(=O)N[C@@](C)(Cc1ccccc1)C(=O)N[C@H](C(=O)N[C@H](C(=O)N[C@@](C)(CCCCN)C(=O)NCC(=O)NCC(N)=O)C(C)C)C(C)C)[C@@H](C)CC)C(C)C)[C@@H](C)O)C(=O)O) [SEQ ID NO 95] | 224 | 0.26 | 0.19 | 28 | 28 | 28 | 28 |
| H[Aib]K([γGlu-Palmitoyl])GS[αMeF]TSDV[αMeS]S[αMeF]LEGEAA[αMeK]E[αMeF]IA[αMeF]VV[αMeK]GG-NH2 (N-terminus assumed; SMILES CCCCCCCCCCCCCCCC(=O)N[C@@H](CCC(=O)NCCCC[C@H](NC(=O)C(C)(C)NC(=O)[C@@H](N)Cc1c[nH]cn1)C(=O)NCC(=O)N[C@@H](CO)C(=O)N[C@@](C)(Cc1ccccc1)C(=O)N[C@H](C(=O)N[C@@H](CO)C(=O)N[C@@H](CC(=O)O)C(=O)N[C@H](C(=O)N[C@@](C)(CO)C(=O)N[C@@H](CO)C(=O)N[C@@](C)(Cc1ccccc1)C(=O)N[C@@H](CC(C)C)C(=O)N[C@@H](CCC(=O)O)C(=O)NCC(=O)N[C@@H](CCC(=O)O)C(=O)N[C@@H](C)C(=O)N[C@@H](C)C(=O)N[C@@](C)(CCCCN)C(=O)N[C@@H](CCC(=O)O)C(=O)N[C@@](C)(Cc1ccccc1)C(=O)N[C@H](C(=O)N[C@@H](C)C(=O)N[C@@](C)(Cc1ccccc1)C(=O)N[C@H](C(=O)N[C@H](C(=O)N[C@@](C)(CCCCN)C(=O)NCC(=O)NCC(N)=O)C(C)C)C(C)C)[C@@H](C)CC)C(C)C)[C@@H](C)O)C(=O)O) [SEQ ID NO 97] | 27800 | 28 | 28 | 28 | 28 | 28 | 28 |
